What was measured:
[1] = tested on: recombinant human GFAP with C-terminal tag (DDK)
Sequence of recombinant human GFAP with C-terminal tag (DDK) (chain, as listed by the source): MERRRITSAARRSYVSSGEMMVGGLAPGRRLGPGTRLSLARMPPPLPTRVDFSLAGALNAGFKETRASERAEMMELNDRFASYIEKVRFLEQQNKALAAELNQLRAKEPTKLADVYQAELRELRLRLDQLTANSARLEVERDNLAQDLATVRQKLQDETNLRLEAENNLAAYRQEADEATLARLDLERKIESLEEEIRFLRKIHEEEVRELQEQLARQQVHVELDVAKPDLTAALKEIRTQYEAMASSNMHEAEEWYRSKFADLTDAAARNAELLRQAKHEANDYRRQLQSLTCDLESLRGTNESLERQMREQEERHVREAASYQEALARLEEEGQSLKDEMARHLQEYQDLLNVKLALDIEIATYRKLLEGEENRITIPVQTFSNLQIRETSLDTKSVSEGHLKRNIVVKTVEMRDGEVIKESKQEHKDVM

Sequence of rat Tau (intact protein) (chain, as listed by the source): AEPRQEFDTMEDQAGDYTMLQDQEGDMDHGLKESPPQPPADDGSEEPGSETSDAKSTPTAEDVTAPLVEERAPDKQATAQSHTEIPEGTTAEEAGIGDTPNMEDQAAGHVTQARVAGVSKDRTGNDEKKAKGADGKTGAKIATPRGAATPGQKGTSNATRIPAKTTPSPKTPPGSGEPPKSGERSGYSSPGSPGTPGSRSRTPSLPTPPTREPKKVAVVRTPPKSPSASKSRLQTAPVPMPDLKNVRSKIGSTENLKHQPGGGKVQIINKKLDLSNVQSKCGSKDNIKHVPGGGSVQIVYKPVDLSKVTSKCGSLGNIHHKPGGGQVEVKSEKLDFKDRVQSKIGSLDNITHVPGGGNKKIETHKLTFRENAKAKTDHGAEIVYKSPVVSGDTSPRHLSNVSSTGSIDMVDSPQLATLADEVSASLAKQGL
Sequence of calpain-2 (P17655 20-700): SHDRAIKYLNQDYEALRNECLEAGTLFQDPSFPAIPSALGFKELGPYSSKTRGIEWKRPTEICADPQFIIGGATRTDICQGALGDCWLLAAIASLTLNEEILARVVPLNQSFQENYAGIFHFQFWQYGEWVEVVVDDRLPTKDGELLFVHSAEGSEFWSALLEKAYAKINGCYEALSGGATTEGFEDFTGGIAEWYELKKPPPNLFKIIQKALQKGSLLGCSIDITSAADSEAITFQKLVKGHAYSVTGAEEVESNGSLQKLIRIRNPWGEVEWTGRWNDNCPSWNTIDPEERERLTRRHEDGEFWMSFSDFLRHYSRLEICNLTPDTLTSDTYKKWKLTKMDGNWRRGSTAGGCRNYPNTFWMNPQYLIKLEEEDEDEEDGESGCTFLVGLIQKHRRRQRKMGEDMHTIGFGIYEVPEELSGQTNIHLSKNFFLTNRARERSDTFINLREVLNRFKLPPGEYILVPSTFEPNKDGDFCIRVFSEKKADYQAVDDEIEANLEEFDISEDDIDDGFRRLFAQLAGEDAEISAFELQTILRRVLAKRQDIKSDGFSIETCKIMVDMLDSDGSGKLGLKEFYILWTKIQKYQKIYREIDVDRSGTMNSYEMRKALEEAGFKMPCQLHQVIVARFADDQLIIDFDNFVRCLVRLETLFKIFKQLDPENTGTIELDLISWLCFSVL
Sequence of calpain-1 (P07384 2-714): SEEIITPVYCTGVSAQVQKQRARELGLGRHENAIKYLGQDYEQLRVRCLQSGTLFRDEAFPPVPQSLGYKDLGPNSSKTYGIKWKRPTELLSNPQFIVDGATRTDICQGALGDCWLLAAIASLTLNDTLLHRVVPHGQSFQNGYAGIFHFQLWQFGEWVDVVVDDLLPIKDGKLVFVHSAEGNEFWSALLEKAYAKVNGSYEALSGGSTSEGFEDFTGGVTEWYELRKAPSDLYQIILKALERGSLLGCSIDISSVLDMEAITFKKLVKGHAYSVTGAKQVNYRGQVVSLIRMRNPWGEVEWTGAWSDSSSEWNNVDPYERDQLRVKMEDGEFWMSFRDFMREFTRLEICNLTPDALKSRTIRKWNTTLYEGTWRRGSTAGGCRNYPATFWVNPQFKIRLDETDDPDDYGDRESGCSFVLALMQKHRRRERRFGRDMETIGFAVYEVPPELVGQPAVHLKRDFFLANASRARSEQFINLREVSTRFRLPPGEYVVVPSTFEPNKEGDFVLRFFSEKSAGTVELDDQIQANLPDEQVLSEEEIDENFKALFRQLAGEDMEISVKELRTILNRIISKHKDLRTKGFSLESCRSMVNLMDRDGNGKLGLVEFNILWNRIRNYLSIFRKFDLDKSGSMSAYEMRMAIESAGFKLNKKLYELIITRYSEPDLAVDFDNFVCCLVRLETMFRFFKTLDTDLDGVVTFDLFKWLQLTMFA

Substance | proteolytic cleavage sites (human Tau) | proteolytic cleavage; N-terminal sequencing of fragments (rat Tau (intact protein)) | proteolytic digestion, western blot of fragments (rat Tau (intact protein)) | proteolytic digestion, western blot with anti-total tau antibody (human Tau) | proteolytic cleavage; N-terminal sequencing of excised GBDP bands [1] | proteolytic cleavage (Coomassie, anti-DDK and anti-GFAP western blot) [1]
calpain (calpain 2 or calpain 1) | Human TBDPs are produced from Human Tau by calpain cleavage at Ser129 ... Val229 ... Gly157 ... Lys44 ... and Arg379 | Calpain cleaves rat tau at Lys43 ... Ser120 ... Val220 ... and Arg370 | – | – | – | –
calpain-1 | – | – | Both calpain-1 and -2 digest tau into several immunoreactive fragments (42 kDa, 35 kDa and 15 kDa) | – | – | –
calpain-2 | – | – | Both calpain-1 and -2 digest tau into several immunoreactive fragments (42 kDa, 35 kDa and 15 kDa) | Treatment of human tau with calpain or caspase produce numerous breakdown products | cleavage by calpain 2 at Asn59 (GALN*59AGFKETRASERAE) ... and Thr383 (TIPVQT*383FSNLQIRET) ... overall producing multiple GBDPs between 49 and 38 kDa in recombinant human GFAP | –
caspase-3 | Caspase cleavage sites in human Tau are Asp25 (GDRKD*25QGGYTMHQD (SEQ ID NO: 17)) ... and Asp421 (SSTGSIDMVD*421SPQLATLA (SEQ ID NO: 18)) | Caspase-3 cleaves rat Tau at Asp412 (SSTGSIDMVD*412SPQLATLA (SEQ ID NO: 10)) | caspase-3 digestion only produces limited fragment doublet of 48 kDa/45/kDa | Treatment of human tau with calpain or caspase produce numerous breakdown products | – | illustrates successful cleavage by both calpain and caspase

Source: patent publication US20170242041
